One may read the stoichiometry N as the number of molecules, sites or subunits per partner or assembly.

The target of this assay is Recombinant TssK (SMA2253), purified from S. marcescens, His6 tag removed (Serratia marcescens Db10). Description: AUC; sedimentation velocity, 4°C, 49000 rev./min, 50 mM Tris/HCl pH 7.5, 250 mM NaCl; Peak 1 at 0.2 to 0.7 mg/ml, Peak 2 at 0.2 and 0.5 mg/ml; c(s) analysis in SEDFIT.

Values joined by “and” are separate entries in the source; they are usually repeats but may differ in a detail not shown here. Identical values can stand only once.

“Recombinant TssK (SMA2253), purified from S. marcescens, His6 tag removed (natural protein)”: the stoichiometry N was 3 and 6.

The record behind these values is publication PMC4072051.
